Measurements taken from US20240270821A1, “GIP/GLP1/GCG TRI-RECEPTOR AGONISTS AND USES THEREOF” (priority 2023, published 2024).
Substitutions are numbered along the chain they refer to.

T1: human GIP receptor (human) (UniProt P48546)
T1 sequence (looked up): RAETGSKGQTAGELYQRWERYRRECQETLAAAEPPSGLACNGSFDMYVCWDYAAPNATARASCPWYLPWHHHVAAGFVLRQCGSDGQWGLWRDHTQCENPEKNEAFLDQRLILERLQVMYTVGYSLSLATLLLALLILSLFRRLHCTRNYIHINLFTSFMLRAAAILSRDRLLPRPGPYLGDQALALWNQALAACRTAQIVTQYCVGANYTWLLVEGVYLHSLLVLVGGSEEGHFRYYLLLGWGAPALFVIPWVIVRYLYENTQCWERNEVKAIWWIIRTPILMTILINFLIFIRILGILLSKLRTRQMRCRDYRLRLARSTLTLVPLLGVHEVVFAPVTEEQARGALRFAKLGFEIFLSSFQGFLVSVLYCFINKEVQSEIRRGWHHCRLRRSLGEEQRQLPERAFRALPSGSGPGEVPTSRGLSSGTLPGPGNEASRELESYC

B1: Example 151 (peptide)
chain: YXQGTFTSDFSQXLDKKAQXAFIEYLLEXGPSSGAPPPSGS
modifications: Lys acylated with AEEA-γGlu-C18 diacid; non-natural residues; C-amide; synthetic construct; SITE 2: note = 2-Aminoisobutyric Acid; SITE 13: note = alpha-methyl-leucine; SITE 17: note = Lysine is chemically modified through conjugation of the epsilon-amino group of the Lysine side chain with (2-[2-(2-Amino-ethoxy)-ethoxy]-acetyl)-(gamma-Glu)-CO-(CH2) 16-CO2H; SITE 20: n
B2: Example 155 (peptide)
chain: B1 chain with Q12X, X29A, A35E
modifications: non-natural residues; lysine acylated with AEEA linker C18 diacid; C-amide; synthetic construct; SITE 2: note = 2-Aminoisobutyric Acid; SITE 12: note = L-ornithine; SITE 13: note = alpha-methyl-leucine; SITE 17: note = Lysine is chemically modified through conjugation of the epsilon-amino group of the Lysine side chain with (2-[2-(2-Amino-ethoxy)-ethoxy]-acetyl)2-(gamma-Glu)
B3: Example 173 (peptide)
chain: B1 chain with Q12X, Y25W, X29G, P31S
modifications: non-natural residues; lipidated Lys AEEA-γGlu-C18 diacid; C-term amide; synthetic construct; SITE 2: note = 2-Aminoisobutyric Acid; SITE 12: note = L-ornithine; SITE 13: note = alpha-methyl-leucine; SITE 17: note = Lysine is chemically modified through conjugation of the epsilon-amino group of the Lysine side chain with (2-[2-(2-Amino-ethoxy)-ethoxy]-acetyl)-(gamma-Glu)
B4: Example 168 (peptide)
chain: B1 chain with Q12X, Y25W, X29G
modifications: Aib, Orn, αMeL; acylated K; C-terminal amide; synthetic construct; SITE 2: note = 2-Aminoisobutyric Acid; SITE 12: note = L-ornithine; SITE 13: note = alpha-methyl-leucine; SITE 17: note = Lysine is chemically modified through conjugation of the epsilon-amino group of the Lysine side chain with (2-[2-(2-Amino-ethoxy)-ethoxy]-acetyl)-(gamma-Glu)
B5: Example 169 (peptide)
chain: B1 chain with Q12X, Y25W, X29G, P31H, S41E
modifications: acylated Lys, C-terminal amide, non-natural residues; synthetic construct; SITE 2: note = 2-Aminoisobutyric Acid; SITE 12: note = L-ornithine; SITE 13: note = alpha-methyl-leucine; SITE 17: note = Lysine is chemically modified through conjugation of the epsilon-amino group of the Lysine side chain with (2-[2-(2-Amino-ethoxy)-ethoxy]-acetyl)2-(gamma-Glu)
B6: Example 166 (peptide)
chain: B1 chain with Q12X, A35E
modifications: Aib, Orn, αMeL, acylated K, C-terminal amide; synthetic construct; SITE 2: note = 2-Aminoisobutyric Acid; SITE 12: note = L-ornithine; SITE 13: note = alpha-methyl-leucine; SITE 17: note = Lysine is chemically modified through conjugation of the epsilon-amino group of the Lysine side chain with (2-[2-(2-Amino-ethoxy)-ethoxy]-acetyl)2-(gamma-Glu)
B7: Example 181 (peptide)
chain: B1 chain with Q12X, P31H
modifications: (AEEA)2-γGlu-C18 diacid on Lys; non-natural residues; amide; synthetic construct; SITE 2: note = 2-Aminoisobutyric Acid; SITE 12: note = L-ornithine; SITE 13: note = alpha-methyl-leucine; SITE 17: note = Lysine is chemically modified through conjugation of the epsilon-amino group of the Lysine side chain with (2-[2-(2-Amino-ethoxy)-ethoxy]-acetyl)2-(gamma-Glu)
B8: Example 172 (peptide)
chain: B1 chain with Q12X, Y25W, X29G, P31S, S41E
modifications: Aib, Orn, αMeL, acylated Lys, amide; synthetic construct; SITE 2: note = 2-Aminoisobutyric Acid; SITE 12: note = L-ornithine; SITE 13: note = alpha-methyl-leucine; SITE 17: note = Lysine is chemically modified through conjugation of the epsilon-amino group of the Lysine side chain with (2-[2-(2-Amino-ethoxy)-ethoxy]-acetyl)-(gamma-Glu)
B9: Example 163 (peptide)
chain: B1 chain with Q12X, X29G, P31X, S39G
modifications: non-natural residues; lysine acylated with AEEA linker C18 diacid; C-amide; synthetic construct; SITE 2: note = 2-Aminoisobutyric Acid; SITE 12: note = L-ornithine; SITE 13: note = alpha-methyl-leucine; SITE 17: note = Lysine is chemically modified through conjugation of the epsilon-amino group of the Lysine side chain with (2-[2-(2-Amino-ethoxy)-ethoxy]-acetyl)-(gamma-Glu)
B10: Example 158 (peptide)
chain: B1 chain with Q12X, X29G, S39G, S41T
modifications: Lys acylated AEEA-γGlu-C18 diacid; non-natural residues; C-terminal amide; synthetic construct; SITE 2: note = 2-Aminoisobutyric Acid; SITE 12: note = L-ornithine; SITE 13: note = …; SITE 17: note = Lysine is chemically modified through conjugation of the epsilon-amino group of the Lysine side chain with (2-[2-(2-Amino-ethoxy)-ethoxy]-acetyl)-(gamma-Glu)
B11: Example 175 (peptide)
chain: B1 chain with Q12X, Y25W, X29G, P31T, S41E
modifications: Aib, Orn, αMeL; acylated Lys C18 diacid; C-term amide; synthetic construct; SITE 2: note = 2-Aminoisobutyric Acid; SITE 12: note = L-ornithine; SITE 13: note = alpha-methyl-leucine; SITE 17: note = Lysine is chemically modified through conjugation of the epsilon-amino group of the Lysine side chain with (2-[2-(2-Amino-ethoxy)-ethoxy]-acetyl)-(gamma-Glu)

biological target: hGLP-1R (Homo sapiens, UniProt P43220); assay: cell-based or functional assay
Sequence (P43220 24-463): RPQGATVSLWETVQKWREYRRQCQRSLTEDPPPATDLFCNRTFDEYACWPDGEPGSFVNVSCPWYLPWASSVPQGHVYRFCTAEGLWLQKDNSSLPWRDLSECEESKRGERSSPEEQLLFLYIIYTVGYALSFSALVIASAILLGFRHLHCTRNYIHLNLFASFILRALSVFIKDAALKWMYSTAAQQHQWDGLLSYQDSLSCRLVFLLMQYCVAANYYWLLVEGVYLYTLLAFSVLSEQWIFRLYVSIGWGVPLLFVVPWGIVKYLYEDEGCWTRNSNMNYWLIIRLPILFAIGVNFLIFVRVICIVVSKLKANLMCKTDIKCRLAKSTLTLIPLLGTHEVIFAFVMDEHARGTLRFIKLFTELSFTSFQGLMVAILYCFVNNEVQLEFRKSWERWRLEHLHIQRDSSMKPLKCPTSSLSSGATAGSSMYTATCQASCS

Binder	Relative cAMP EC50, nM (0.1% casein)	cAMP Rel EC50, nM (1% HSA)
B1	1.6 nM	384 nM
B2	2.98 nM	503 nM
B3	2.32 nM	293 nM
B4	2.44 nM	281 nM
B5	6.17 nM	216 nM
B6	6.96 nM	1500 nM
B7	4.39 nM	365 nM
B8	3.5 nM	457 nM
B9	6.5 nM	762 nM
B10	2.49 nM	184 nM
B11	4 nM	386 nM

biological target: T1, human GIP receptor (human); assay: cell-based or functional assay

Binder	Relative cAMP EC50, nM (0.1% casein)	cAMP Rel EC50, nM (1% HSA)
B1	0.0784 nM	14.9 nM
B2	0.177 nM	18.9 nM
B3	0.168 nM	49.9 nM
B4	0.233 nM	31.9 nM
B5	0.209 nM	21.5 nM
B6	0.118 nM	21 nM
B7	0.133 nM	12.7 nM
B8	0.174 nM	29.3 nM
B9	0.376 nM	52 nM
B10	0.245 nM	24.7 nM
B11	0.218 nM	29.6 nM

biological target: human GLP-1R (SNAP-GLP-1R expressed in HEK293 cells) (human) (UniProt P43220); assay: cell-based or functional assay
Sequence (P43220 24-463): as above

Binder	GLP1R Internalization EC50	Internalization % TOP
B1	77.8 nM	55%
B2	85.1 nM	54.5%
B3	97.1 nM	38.6%
B4	74.8 nM	38.7%
B5	178 nM	49.4%
B6	74.6 nM	44.2%
B7	116 nM	47.5%
B8	121 nM	41.4%
B9	143 nM	37.8%
B10	104 nM	52.4%
B11	116 nM	49.2%

biological target: human glucagon receptor (human) (UniProt P47871); assay: cell-based or functional assay
Sequence (P47871 26-477): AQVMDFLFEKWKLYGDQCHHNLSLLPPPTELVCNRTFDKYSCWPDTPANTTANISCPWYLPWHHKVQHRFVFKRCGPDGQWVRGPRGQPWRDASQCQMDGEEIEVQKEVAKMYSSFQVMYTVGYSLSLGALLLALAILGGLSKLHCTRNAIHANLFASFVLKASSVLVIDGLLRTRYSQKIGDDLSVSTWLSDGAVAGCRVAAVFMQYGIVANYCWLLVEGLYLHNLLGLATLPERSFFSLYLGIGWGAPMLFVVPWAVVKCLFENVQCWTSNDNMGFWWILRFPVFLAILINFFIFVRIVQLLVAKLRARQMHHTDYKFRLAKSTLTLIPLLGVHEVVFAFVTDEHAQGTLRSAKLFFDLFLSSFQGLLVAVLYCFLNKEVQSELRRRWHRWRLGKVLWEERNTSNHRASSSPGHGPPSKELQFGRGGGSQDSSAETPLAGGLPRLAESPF

Binder	Relative cAMP EC50, nM (0.1% casein)	cAMP Rel EC50, nM (1% HSA)
B1	3.5 nM	1420 nM
B2	5.68 nM	1310 nM
B3	3.6 nM	745 nM
B4	5.54 nM	1270 nM
B5	11.7 nM	439 nM
B6	3.82 nM	724 nM
B7	6.25 nM	772 nM
B8	3.38 nM	605 nM
B9	5.6 nM	790 nM
B10	3.72 nM	325 nM
B11	4.92 nM	579 nM
